Measured values published in patent US20160129086A1.

Target: CD20 on human lymphoma cells (Daudi, Jeko-1) (UniProt P11836)
Experiment: cell-based or functional assay

Sequence of CD20 on human lymphoma cells (Daudi, Jeko-1) (P11836 whole entry): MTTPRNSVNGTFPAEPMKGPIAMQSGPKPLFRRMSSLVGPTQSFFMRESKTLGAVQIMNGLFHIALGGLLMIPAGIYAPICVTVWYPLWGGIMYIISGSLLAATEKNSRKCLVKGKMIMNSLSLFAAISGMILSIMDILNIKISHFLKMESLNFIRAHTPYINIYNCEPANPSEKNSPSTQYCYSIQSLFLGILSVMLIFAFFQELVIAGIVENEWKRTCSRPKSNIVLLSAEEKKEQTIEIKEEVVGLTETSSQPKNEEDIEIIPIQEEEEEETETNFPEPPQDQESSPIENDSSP

veltuzumab (antibody)
EC50, in vitro proliferation of Jeko-1 cells: 1.5 nM

20-2b (from UniProt P01563 24-188)
EC50, high-concentration response, in vitro proliferation of Jeko-1 cells: 0.85 nM
EC50, low-concentration response, in vitro proliferation of Jeko-1 cells: 0.00097 nM
